# Residue numbers refer to the chain shown, from its start. Numbers in names are those of the source.
# B1: S. pombe Grx4 (WT) (natural protein, UniProt O74790 1-244, looked up)
# chain: MSVEITFVEQFQEILQNGKEQIILLNFYAPWAAPCKQMNQVFDQFAKDTKNAVFLKIEAEKFSDIAESFDVNAVPLFVLIHGAKVLARISGANPQKLKAAIDEYIQPLISQISSTNASVETQVNSVQTTNTTSNTSKAPNGLDSELNERLSTLTNAHNVMLFLKGTPSEPACGFSRKLVGLLREQNVQYGFFNILADDSVRQGLKVFSDWPTFPQLYIKGEFVGGLDIVSEMIENGELQEMLPN
# B2: S. pombe Grx4 (C172A) (natural protein, UniProt O74790 1-244, looked up)
# chain: B1 chain with C172A
# B3: S. cerevisiae Fra2^Δ1–35 (domain or fragment, UniProt P53082 36-120, looked up)
# chain: MPVTEQGLRERIESAIPQVYHIIVTDLSYGCGQSFDIVVVSDFFQGKSKLMRSRAVNKAVKEELQEIHAFSCKCYTEEEWSKIVV
# Columns and labels:
# [1] = target: the molecule itself; assay: SEC
# [2] = target: T1, S. pombe Php4 (WT), 6xHis-tagged (S. pombe, UniProt O14318 1-295); assay: SPR
# T1 sequence (looked up): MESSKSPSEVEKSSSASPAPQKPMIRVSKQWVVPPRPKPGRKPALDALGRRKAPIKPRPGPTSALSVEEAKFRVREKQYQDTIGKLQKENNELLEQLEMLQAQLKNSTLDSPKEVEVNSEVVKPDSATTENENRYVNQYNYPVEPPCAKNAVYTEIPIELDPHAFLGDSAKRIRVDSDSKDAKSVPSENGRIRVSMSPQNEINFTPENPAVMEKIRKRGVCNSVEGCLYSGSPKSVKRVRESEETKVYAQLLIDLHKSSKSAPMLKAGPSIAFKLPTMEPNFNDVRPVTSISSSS
# [3] = target: B1; assay: CD-monitored titration
binder,measurement,setting,value
B1,binding result,[1],binds
same,Kd,[2],34.1 µM
same,koff,[2],0.00219 s⁻¹
same,kon,[2],64.3 M⁻¹ s⁻¹
B2,Kd,[2],897 µM
same,koff,[2],0.00916 s⁻¹
same,kon,[2],10.2 M⁻¹ s⁻¹
B3,binding result,[3],binds
